Test results reported in the RNAGym collection of RNA variant scans (doi:10.7554/elife.80360).

B1: Twister Ribozyme (parent)
chain: AACACUGCCAAUGCCGGUCCCAAGCCCGGAUAAAAGUGGAGGGGGCGG

Variants of: B1
Experiment: self-cleavage, relative activity (ratio to wild type); higher = more cleavage; co-transcriptional

Compared with AACACUGCCCAUGCCGGUCCCAAGCCCGGAUAAAGGUGGAGGGGGCGG [A10C A35G], AACACUGCCCAUGCCGGUGCCAAGCCCGGAUAAAAGUGGAGGGGGCGG [A10C C19G] is lower in self-cleavage: 0.965 for the first, 0.309 for the second.

Compared with AACACUGCCAAUGCCGGUCGCAAGCCCGGAUAAAAGUAGAGGGGGCGG [C20G G38A], AACACUGCCAAUGCCGAUCCCAAGCCCGGAUAAAAGUGUAGGGGGCGG [G17A G39U] is higher in self-cleavage: 0.0626 for the first, 0.165 for the second.

Going from AACACUGCCAAUGCCGGUCCCAAGCGCAGAUAAAAGUGGAGGGGGCGG [C26G G28A] to AACACUGCCAAUGCCGUUCCCAAGCCCGGAUAAAAGUGGAGGGCGCGG [G17U G44C], the self-cleavage rises from 0.101 to 0.293.

First: AACACUGCUAAUGCCGGUCCCAAACCCGGAUAAAAGUGGAGGGGGCGG [C9U G24A]
Second: AACACUGCCUAUGCCGGUCCCAAGCCCGGAUAAAAGUGGAGUGGGCGG [A10U G42U]
The self-cleavage of the first is lower: 0.0648 for the first, 0.447 for the second.

Going from AACACUGCCAAUGCCGGUCCCAAGCCCGGAUAAACGUGGAGGGGGCGU [A35C G48U] to AACACUGCCAAUGCCUGUCCCAAGACCGGAUAAAAGUGGAGGGGGCGG [G16U C25A], the self-cleavage falls from 0.978 to 0.206.

Going from AACACUGCCAAUGCCCGUCCCAAGCCCGGAUAAAACUGGAGGGGGCGG [G16C G36C] to CACACUGCCAAUGCCGGUCCCAAGCCCGGAUAAAAGUGGAGGGGGCUG [A1C G47U], the self-cleavage rises from 0.0717 to 0.228.

First: AACACUGCCAAAGCCGGUCCCAAGCCCGGAUAAAAGUGGAGGGGGAGG [U12A C46A]
Second: AAAACUGCCAAUGCCGGUCCCAAGCCCGGAUAAAAGUGGUGGGGGCGG [C3A A40U]
The self-cleavage of the first is higher: 1.09 for the first, 0.0819 for the second.

Compared with AACAGUGCCAAUGCCGGUCCCAAGCCCGGACAAAAGUGGAGGGGGCGG [C5G U31C], AACACUGCCAAUACCCGUCCCAAGCCCGGAUAAAAGUGGAGGGGGCGG [G13A G16C] is lower in self-cleavage: 0.584 for the first, 0.106 for the second.

Going from AACACAGCCAAUGCCGAUCCCAAGCCCGGAUAAAAGUGGAGGGGGCGG [U6A G17A] to AACACUGCCAAUGCCGGACCCAAGCCCGGAUAAAAGUGGAGGGGCCGG [U18A G45C], the self-cleavage falls from 0.181 to 0.155.

First: AACACUGCCAAUGCCUGACCCAAGCCCGGAUAAAAGUGGAGGGGGCGG [G16U U18A]
Second: AGCACUGCCAAUGCCGGUCCCAAGCCCGGAUAAAACUGGAGGGGGCGG [A2G G36C]
The self-cleavage of the first is higher: 0.605 for the first, 0.105 for the second.

First: AACACUGGCAAUGCUGGUCCCAAGCCCGGAUAAAAGUGGAGGGGGCGG [C8G C15U]
Second: AACACUGCCAAUGCCGGUCCCAAGUCCGGAUAAUAGUGGAGGGGGCGG [C25U A34U]
The self-cleavage of the first is lower: 0.534 for the first, 0.633 for the second.

Going from AACACUGCUAAUGCCGGUCCCAAGCCCGGAUAAAAGUGGAGGGGGCCG [C9U G47C] to AACACUGACAAUGCCGGUCCCAAGCCCGGAUAAAAGUGGAGGGGGCAG [C8A G47A], the self-cleavage rises from 0.235 to 0.26.

First: AACACUGCCAAUGCCGGUCCCAAGCCCGGAUCAUAGUGGAGGGGGCGG [A32C A34U]
Second: AACACUGCCAAUGCCGGUCCCUAGCCCGUAUAAAAGUGGAGGGGGCGG [A22U G29U]
The self-cleavage of the first is higher: 0.786 for the first, 0.66 for the second.

Compared with AACACUGCCAAUGCCGGUCCCAAGCCCGGAUAAAAGUGGAGGGAGCCG [G44A G47C], AACACUGCCAAUGCCGGUCCCAAGCCCGGAUAAAUGUGGAGGGGGCAG [A35U G47A] is higher in self-cleavage: 0.828 for the first, 0.899 for the second.

Going from AACACUGCCAAUGCCGGUUCUAAGCCCGGAUAAAAGUGGAGGGGGCGG [C19U C21U] to AACACUGCCAAUGCCGGUCCCAAGCCCGGAUAAAAAUGGAGGUGGCGG [G36A G43U], the self-cleavage rises from 0.0767 to 0.147.

Going from AACACUGCCAAUCCCGGUCCCAAGCCCGGAUCAAAGUGGAGGGGGCGG [G13C A32C] to AACACUGCCAAUGCCGGUCCUAAGCCCGGGUAAAAGUGGAGGGGGCGG [C21U A30G], the self-cleavage falls from 0.159 to 0.097.

Going from AACACUGCCAAUGCCGGUCCCAAGCCUGGGUAAAAGUGGAGGGGGCGG [C27U A30G] to AACACUGCCAAUCCCGGUCCCAGGCCCGGAUAAAAGUGGAGGGGGCGG [G13C A23G], the self-cleavage falls from 0.777 to 0.139.

Compared with AACACUGCCUAUGCCCGUCCCAAGCCCGGAUAAAAGUGGAGGGGGCGG [A10U G16C], AACACUGCCAAUGCCGGUCCCAAGCCCGGAUAACAGCGGAGGGGGCGG [A34C U37C] is lower in self-cleavage: 0.419 for the first, 0.116 for the second.

First: AACACUGCCAAUCCCGCUCCCAAGCCCGGAUAAAAGUGGAGGGGGCGG [G13C G17C]
Second: AACACUGCCAAUGCUGGUCCCAAGCCCGGAGAAAAGUGGAGGGGGCGG [C15U U31G]
The self-cleavage of the first is lower: 0.0805 for the first, 0.782 for the second.

Compared with AACACUGCCGAUGCCGGUCACAAGCCCGGAUAAAAGUGGAGGGGGCGG [A10G C20A], AACACAGACAAUGCCGGUCCCAAGCCCGGAUAAAAGUGGAGGGGGCGG [U6A C8A] is lower in self-cleavage: 0.136 for the first, 0.104 for the second.

Going from AACACUGCCAUUGCCGGUCCCAGGCCCGGAUAAAAGUGGAGGGGGCGG [A11U A23G] to AAAACUGCCAAUGCCGGUCCCAAGCCCGAAUAAAAGUGGAGGGGGCGG [C3A G29A], the self-cleavage falls from 0.755 to 0.232.

Compared with AACACUGCCAAGGCCGGUCCCAAGCCGGGAUAAAAGUGGAGGGGGCGG [U12G C27G], AACACUGCCAAGGCCGGUCCCAAGCCAGGAUAAAAGUGGAGGGGGCGG [U12G C27A] is higher in self-cleavage: 0.136 for the first, 0.373 for the second.

Going from AACACUGCCAAUGCCGGUCCCAAGCCCGGAUAAAAGUGGAGGGGGUGU [C46U G48U] to AACACUGCCAAUGCCUGUCCCAAUCCCGGAUAAAAGUGGAGGGGGCGG [G16U G24U], the self-cleavage falls from 1.01 to 0.0815.

Going from AACACUGCCAAUGCCGGACUCAAGCCCGGAUAAAAGUGGAGGGGGCGG [U18A C20U] to AACACUGCCAAUGCCGGUCCGAAGCCCGGAUAAAAGUGGAGGAGGCGG [C21G G43A], the self-cleavage falls from 0.168 to 0.0243.

Going from AACACUUCCAAUGCCGGUCCCAAGACCGGAUAAAAGUGGAGGGGGCGG [G7U C25A] to AACACUGCCAGUGCCGCUCCCAAGCCCGGAUAAAAGUGGAGGGGGCGG [A11G G17C], the self-cleavage falls from 0.224 to 0.0792.

Compared with AACACUGCCAAUGCCGGUCCCAAGCCCGGAUAAAAGUGGAGGGGGUCG [C46U G47C], AACACUGCCAAUGCCGGUCCCAAGCCCGGAUAAAAGUGCAGCGGGCGG [G39C G42C] is lower in self-cleavage: 1.6 for the first, 0.129 for the second.

Compared with AACAGUGCCAAUGCCGGUCCCAAGCCGGGAUAAAAGUGGAGGGGGCGG [C5G C27G], AACACUGCCAAUGCCUGUCCCUAGCCCGGAUAAAAGUGGAGGGGGCGG [G16U A22U] is higher in self-cleavage: 0.0623 for the first, 0.759 for the second.
